Data on three substances can be found in article PMC10373194, “Determination of the Dissociation Constant for Polyvalent Receptors Using ELISA: A Case of M13 Phages Displaying Troponin T-Specific Peptides” (ACS Omega, 2023).

Experiment [1] addresses T1, troponin T (TnT) (Homo sapiens, UniProt P45379). The experiment can be described thus: Determination of Kd via k-ELISA (Friguet procedure, preincubation of phage with soluble TnT). It is filed as binding. On the procedure:
During an ELISA experiment, as proposed by Friguet,[21] a constant concentration of phages is incubated with different concentrations of TnT. Saturation of phages (in solution) by soluble TnT limits the ability of phages to bind to immobilized TnT, and therefore, increasing concentration of TnT causes a decrease in signal from the phages, in our case, the M13. Theoretically, two options have to be discussed: (1) a signal (a) is generated for each phage with at least one unoccupied active site (eq 11) and (2) a signal (a) is generated proportionally to the total concentration of unoccupied active sites (eq 12). [drawing 21] 11 [drawing 22] 12
ELISA (also k-ELISA) can be used to measure the dissociation constant (Kd), which is commonly applied to describe affinity.[21] According to the mathematical model presented above, the Kd value can be calculated via pre-incubation of a receptor with varied concentrations of ligand and subsequent detection of the soluble receptor (phage) via ELISA. This approach was adapted and applied to evaluate the affinity of several phage-derived ligands[16]−[18] but without a theoretical analysis and fulfilling fundamental Friguet’s assumptions.[21] In these papers, phages were treated as monovalent receptors while they are tri to pentavalent (due to a varied number of pIII protein per phage particle). Moreover, the authors applied a wide range of ligand concentrations, high excess compared to the receptor and treated the concentration-signal function as logarithmic, while the discussion above concluded that it is not possible to apply Frigeut’s method for almost completely saturated receptors (due to ligand excess).
In our work, analysis was performed for clones: A3, B7, D11, and wild-type M13. […] The phages’ total concentration was about 1 × 10^10 pfu/mL (16 pM) and was carefully determined using the biological method immediately before analysis. The range of ratios of total TnT and total phage concentration was 1:2, 1:1, 2:1, and 4:1. […] As a result, a decrease in the ability to bind to immobilized TnT molecules occurs. Experimental data were analyzed according to the presented mathematical model.
The dissociation constant was calculated using k-ELISA, according to the procedure first described by Friguet.[21] Phages (∼10^10 pfu/mL corresponding to about 16 pM) were preincubated with different concentrations of TnT from 0 to 4 ng/mL (which corresponds to 108 pM). Next, mixtures were transferred into wells precoated with 0.25 μg/mL TnT (or BSA). Further steps were performed in the same manner as for phage concentration measuring experiments.
(ELISA stands for enzyme-linked immunosorbent assay.)

Experiment [2] addresses T1, troponin T (TnT). The experiment can be described thus: Bio-panning of Ph.D.-12 phage display library on TnT-coated plates. It is filed as binding. To be noted: after 3 rounds of bio-panning; number of proper sequences. An excerpt:
In each bio-panning round, the input and output phases were titrated immediately before or after the experiment. The presented mean p(O/I) value for each bio-panning round may be interpreted as the efficiency of phage binding. In chemical nomenclature, p(x) is defined as −log(x), so a higher p(O/I) means a lower ratio of phage output–input. The p(O/I) value for the first panning round is relatively low. However, usage of more concentrated Tween-20 (from 0.1 to 0.5%) causes a significant increase in p(O/I) values for the second round (around 4) despite a higher phage input. In addition, there is a difference between the second and the third p(O/I), which may be interpreted as an enrichment of TnT-binders in the phage pool, and it is the main aim of bio-panning via phage display. The increase in phage recovery yield is a widely reported observation by manufacturers and other authors.[14],[17],[35],[36]
Plate panning was performed regarding the general concept presented by Barbas et al.[60] with some modifications. Polystyrene plates were precoated with TnT and incubated overnight (18–24 h) in 100 μL of 20 μg/mL TnT solution in PBS at 4 °C. Then, the wells were emptied and filled with 100 μL of 0.1% BSA solution (in PBS) and incubated for 2 h in the fridge. Later, they were washed four times with PBST 0.1% (in the first panning round) and 0.5% in the next two. […]

Experiment [3] deals with T1, troponin T (TnT). It is filed as binding.
In experiment [4] the target is T1, troponin T (TnT). The experiment can be described thus: ELISA screening of isolated phage clones against TnT (BSA as negative control).
Description: It is worth mentioning that both TnT- and BSA-precoated wells were blocked with the same 0.1% BSA solution, so BSA was present in each well in significant excess.
ELISAs were performed in 96-well polystyrene plates (Thermo Scientific, USA). Wells were precoated with the desired protein by 16–20 h incubation of the protein suspension in PBS at 4 °C. In all assays, 1:5000 dilution of HRP-antiM13pVIII monoclonal antibody conjugate was used. Signals were recorded using Synergy HTX Multi-Mode Reader by BioTek.
In the initial screening, plates were precoated with troponin T or BSA (negative control) by incubating 100 μL of 1 μg/mL appropriate protein solution. Then plates were blocked with 0.1% BSA for 2 h at 4 °C and washed 4 times with 0.1% PBST. Every isolated phage clone solution (phages concentration 10^10 pfu/mL, 100 μL) was incubated with TnT and BSA for 1 h at 350 rpm at room temperature. Then wells were washed 4 times using 0.1% PBST, 100 μL of HRP-antibody conjugate was added, and plates were incubated as previously. After 1 h, plates were washed as before, and 50 μL of TMB was added. After 5 min, the reaction was stopped by adding 50 μL of 2 M sulfuric acid. Absorbance at 450 nm was read using a Synergy HTX Multi-Mode Reader (BioTek) plate reader.
Where [5] appears, read: assumed stoichiometry 1:1, k-ELISA, phages ~10^10 pfu/mL (about 16 pM) preincubated with TnT 0 to 4 ng/mL, wells precoated 0.25 μg/mL TnT, 0.01% myoglobin blocking, absorbance 370 nm every 70 s for 10 min, linear slope regression, triplicate, phage-displayed peptide.
Where [6] appears, read: assumed stoichiometry 1:2, k-ELISA, phages ~10^10 pfu/mL (about 16 pM) preincubated with TnT 0 to 4 ng/mL, wells precoated 0.25 μg/mL TnT, 0.01% myoglobin blocking, absorbance 370 nm every 70 s for 10 min, linear slope regression, triplicate, phage-displayed peptide.

Where “and” joins values, the source holds several entries; their conditions need not be identical. Equal entries are not always repeated. Where two headings read alike, the source gives them in different places.

Regarding “D11: TnT-binding M13 phage clone displaying 12-amino-acid peptide (ALKIGPETTIYM in Table 2) on pIII”, the Kd was found to be 0.167 ± 0.007 nM with troponin T (TnT) [1] (setting [5]) and 0.216 ± 0.04 nM in the experiment with troponin T (TnT) [1] (setting [6]).
Regarding “B7: TnT-binding M13 phage clone displaying 12-amino-acid peptide (HRSMPTPLWYTA in Table 2) on pIII”, the dissociation constant (Kd) with troponin T (TnT) [1] (setting [5]) worked out at 0.077 ± 0.013 nM; in the experiment with troponin T (TnT) [1] (setting [6]) it was 0.166 ± 0.03 nM; with troponin T (TnT) [1] (assumed stoichiometry 1:5, k-ELISA, phages ~10^10 pfu/mL (about 16 pM) preincubated with TnT 0 to 4 ng/mL, wells precoated 0.25 μg/mL TnT, 0.01% myoglobin blocking, absorbance 370 nm every 70 s for 10 min, linear slope regression, triplicate, phage-displayed peptide), 0.143 ± 0.053 nM.
For DHAQRYGAGHSG [A3], the Kd with troponin T (TnT) [1] was 0.115 nM and 0.187 nM and 0.172 nM. For the same substance, at troponin T (TnT) [2], the “frequency among sequenced clones” value was 4 out of 16 and 4/16. Besides, at troponin T (TnT) [3], the “nature of interaction with target” value was “specific interaction with the studied target”. In addition, the “ELISA signal TnT versus BSA / affinity in screening (in words)” value at troponin T (TnT) [4] was “highest affinity in screening”.

One may read the Kd as the constant that tells how readily two partners part at equilibrium. Read a high Kd as weaker binding.
